Assay results as given in US20180355060A1 (published 2018).
Where two headings read alike, the source gives them in different places.

T1: cynomolgus monkey TG2 (cynomolgus monkey, UniProt A0A2K5VXI8 2-687)
T1 chain: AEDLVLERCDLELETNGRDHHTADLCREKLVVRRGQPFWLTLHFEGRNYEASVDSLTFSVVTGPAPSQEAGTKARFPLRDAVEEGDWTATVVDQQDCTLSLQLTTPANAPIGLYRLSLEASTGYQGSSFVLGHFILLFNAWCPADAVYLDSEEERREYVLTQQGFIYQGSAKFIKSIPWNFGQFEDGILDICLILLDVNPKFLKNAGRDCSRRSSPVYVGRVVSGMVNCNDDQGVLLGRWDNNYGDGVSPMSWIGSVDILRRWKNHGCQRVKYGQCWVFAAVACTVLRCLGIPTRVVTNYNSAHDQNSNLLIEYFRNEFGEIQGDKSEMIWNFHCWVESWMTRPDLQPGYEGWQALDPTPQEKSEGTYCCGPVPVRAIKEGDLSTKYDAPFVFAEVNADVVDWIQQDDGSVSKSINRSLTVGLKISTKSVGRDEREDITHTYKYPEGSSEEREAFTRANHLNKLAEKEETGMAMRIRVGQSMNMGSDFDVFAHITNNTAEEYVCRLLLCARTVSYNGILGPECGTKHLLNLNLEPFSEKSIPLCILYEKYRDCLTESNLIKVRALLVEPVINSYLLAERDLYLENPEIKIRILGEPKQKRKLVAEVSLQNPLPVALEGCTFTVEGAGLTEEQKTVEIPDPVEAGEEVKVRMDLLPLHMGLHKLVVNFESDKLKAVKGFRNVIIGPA

T2: human transglutaminase type 2 (TG2) (UniProt P21980 1-687)
T2 chain: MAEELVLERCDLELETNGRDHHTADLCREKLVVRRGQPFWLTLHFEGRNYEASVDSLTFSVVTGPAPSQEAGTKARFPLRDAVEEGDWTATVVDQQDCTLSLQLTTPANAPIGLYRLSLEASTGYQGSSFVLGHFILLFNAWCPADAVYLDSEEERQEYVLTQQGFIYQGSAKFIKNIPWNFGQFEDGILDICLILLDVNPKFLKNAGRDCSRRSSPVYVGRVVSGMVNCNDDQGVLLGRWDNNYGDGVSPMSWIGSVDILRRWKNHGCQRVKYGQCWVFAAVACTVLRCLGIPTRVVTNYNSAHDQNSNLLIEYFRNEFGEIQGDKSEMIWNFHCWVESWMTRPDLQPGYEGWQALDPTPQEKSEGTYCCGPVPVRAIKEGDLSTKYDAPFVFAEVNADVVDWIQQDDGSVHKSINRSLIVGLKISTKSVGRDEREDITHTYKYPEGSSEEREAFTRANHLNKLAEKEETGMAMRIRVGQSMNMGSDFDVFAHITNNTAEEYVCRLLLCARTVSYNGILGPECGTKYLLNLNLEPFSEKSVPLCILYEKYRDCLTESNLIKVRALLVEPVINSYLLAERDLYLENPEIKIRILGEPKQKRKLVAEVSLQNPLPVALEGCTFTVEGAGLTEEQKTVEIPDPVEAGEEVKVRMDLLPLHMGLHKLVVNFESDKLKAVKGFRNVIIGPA


Experiments:
cynomolgus monkey TG2 [1] = target: T1, cynomolgus monkey TG2; assay: ELISA
[2] = target: T2, human transglutaminase type 2 (TG2); assay: ELISA
[3] = target: T2, human transglutaminase type 2 (TG2); assay: enzyme inhibition
[4] = target: T2, human transglutaminase type 2 (TG2); assay: enzyme inhibition
[5] = target: T2, human transglutaminase type 2 (TG2); assay: enzyme inhibition
cynomolgus monkey TG2 [6] = target: T1, cynomolgus monkey TG2; assay: ELISA
[7] = target: T2, human transglutaminase type 2 (TG2); assay: ELISA
cynomolgus monkey TG2 [8] = target: T1, cynomolgus monkey TG2; assay: enzyme inhibition
[9] = target: T2, human transglutaminase type 2 (TG2); assay: enzyme inhibition

| EC50 [4] | EC50 (cynomolgus monkey TG2 [6]) | EC50 [7] | IC50 [9] | Binder | further results |
| --- | --- | --- | --- | --- | --- |
| – | – | – | – | cAB003 chimeric anti-TG2 antibody (murine AB1 variable regions, human IgG1 and human kappa) (antibody, V domains shown) VH: EVQLVESGGGLVKPGGSLKLSCAASGFTLSSSAMSWVRQTPDRRLEWVATISVGGGKTYYPDSVKGRFTISRDNAKNTLYLQMNSLRSEDTAMYYCAKLISLYWGQGTTLTVSS VL: DIKMTQSPSSMYASLGERVTITCKASQDINSYLTWFQQKPGKSPKTLIYRTNRLFDGVPSRFSGSGSGQDFFLTISSLEYEDMGIYYCLQYDDFPYTFGGGTKLEIK | EC50 (cynomolgus monkey TG2 [1]): 0.0568 nM; EC50 [2]: 0.0614 nM; IC50 [3]: 1.17 nM |
| 0.571 nM | – | – | – | DC1 murine monoclonal anti-TG2 antibody (antibody, V domains shown) VH: EVQLVESGGGLVKPGGSLKLSCAASGFTLSTHAMSWVRQTPEKRLEWVATISSGGRSTYYPDSVKGRFTISRDNVKNTLYLQLSSLRSEDTAVYFCARLISTYWGQGTTLTVSS VL: DITMTQSPSSIYASLGERVTITCKASQDINSYLTWFQQKPGKSPKILIYLVNRLVDGVPSRFSGSGSGQDYALTISSLEYEDMGIYYCLQYDDFPYTFGGGTKLEIK | – |
| – | – | – | – | DH2 murine monoclonal anti-TG2 antibody (antibody, V domains shown) VH: not shown VL: QIVLTQSPAIMSASPGEKVTMTCSASSSVSYMYWYQQKPGSSPRLLIYDTSNLASGVPVRFSGSGSGTSYSLTISRMEAEDAATFYCQQWSSSPLTFGAGTKLELK | EC50 [5]: ~7000 nM |
| 564 nM | – | – | – | DD9 murine monoclonal anti-TG2 antibody (antibody, V domains shown) VH: not shown VL: QIVLTQSPAIMSASPGEKVTMTCSASSSVDYMYWYQQKPGSSPRLLIYDTSNLASGVPVRFSGSGSGTSYSLTISRMGAEDAATYYCQQWNSSPLTFGAGTKLELK | – |
| – | 0.0561 nM | ~0.0474 nM | 5.99 nM | hBB001AA humanised BB7 antibody (BB7 RHA with BB7 RKA) (antibody, V domains shown) VH: EVQLLESGGGLVQPGGSLRLSCAASGIIFSSSAMSWVRQAPGKGLEWVATISSGGRSTYYPDSVKGRFTVSRDSSKNTLYLQMNSLRAEDTAVYYCAKLISPYWGQGTLVTVSS VL: DIKMTQSPSSLSASVGDRVTITCKASQDINSYLTWFQQKPGKAPKTLIYLTNRLMDGVPSRFSGSGSGQEFLLTISSLQPEDFATYYCLQYVDFPYTFGQGTKVEIK | IC50 (cynomolgus monkey TG2 [8]): 8.51 nM |
| – | 0.0738 nM | 0.0627 nM | 0.985 nM | hBB001BB humanised BB7 antibody (BB7 RHB with BB7 RKB) (antibody, V domains shown) VH: EVQLLESGGGLVQPGGSLRLSCAASGFTFSSSAMSWVRQAPGKGLEWVSTISSGGRSTYYPDSVKGRFTISRDNSKNTLYLQMNSLRAEDTAVYYCAKLISPYWGQGTLVTVSS VL: DIQMTQSPSSLSASVGDRVTITCKASQDINSYLTWFQQKPGKAPKSLIYLTNRLMDGVPSRFSGSGSGTDFFLTISSLQPEDFATYYCLQYVDFPYTFGQGTKVEIK | – |
